Test results: publication doi:10.1101/671792

Molecular target: polymerization-deficient p62 PB1 domain D69A/D73A (human) (UniProt Q13501)
Assay: ITC

- Kd: 12.6 nM
Substance: human NBR1 PB1 domain, residues 1-85 (ITC) (from UniProt Q14596 1-85) (domain or fragment)
